Measured values as given in patent US20060292151A1, “L-SIGN polymorphisms and methods involving use of same” (priority 2004, published 2006).

Assays:
L-SIGN-7 (human) = L-SIGN-7 (human) (UniProt Q9H2X3); assay: HCVpp supernatant on HeLa-SIGN transfectants, cell-bound p24 by ELISA
L-SIGN-9 (human) [1] = assay: flow cytometry, E2 at 5 µg/ml; lower end tied to L-SIGN-9 by the words L-SIGN-9 cells showing the lowest levels of binding
L-SIGN-9 (human) [2] = assay: flow cytometry on HeLa-SIGN transfectants
[3] = target: HeLa-SIGN transfectants (L-SIGN isoforms tested); assay: flow cytometry, E2 at 5 µg/ml; upper end not tied to an isoform

Sequence of L-SIGN-7 (human) (Q9H2X3 whole entry): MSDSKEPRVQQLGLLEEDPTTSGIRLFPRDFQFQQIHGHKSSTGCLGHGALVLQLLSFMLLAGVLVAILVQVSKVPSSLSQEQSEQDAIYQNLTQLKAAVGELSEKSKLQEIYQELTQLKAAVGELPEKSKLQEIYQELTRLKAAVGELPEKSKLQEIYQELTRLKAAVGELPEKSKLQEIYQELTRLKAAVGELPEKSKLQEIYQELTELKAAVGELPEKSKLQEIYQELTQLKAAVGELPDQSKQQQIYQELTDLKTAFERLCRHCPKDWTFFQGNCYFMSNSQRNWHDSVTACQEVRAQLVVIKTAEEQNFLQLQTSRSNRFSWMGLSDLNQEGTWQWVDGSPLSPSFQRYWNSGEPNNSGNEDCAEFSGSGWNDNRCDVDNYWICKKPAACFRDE

Row | Substance | fold higher binding than to the other isoforms (L-SIGN-7 (human)) [fold] | fold above background binding to parental HeLa (L-SIGN-9 (human) [1]) [fold] | specific binding, percent of cells (L-SIGN-9 (human) [1]) | fold lower binding than the other isoforms (L-SIGN-9 (human) [2]) [fold] | fold above background binding to parental HeLa [3] [fold] | specific binding, percent of cells [3]
1 | HCV pseudovirus particles (HCVpp) (from UniProt P27958 192-383; P27958 384-746) (other; other documents disagree on this pair) | 2 |  |  |  |  | 
2 | soluble E2 glycoprotein |  | 9 | 35 % of cells | 2 to 3 | 25 | 93 % of cells
